To fix the notation:
B1: Fab VH1-46_IGHD6-6*01_IGHJ1*01 S103P & L6_IGKJ1*01 (Fab, V domains shown)
VH: QVQLVQSGAEVKKPGASVKVSCKASGYTFTSYYMHWVRQAPGQGLEWMGIINPSGGSTSYAQKFQGRVTMTRDTSTSTVYMELSSLRSEDTAVYYCAREEYSPSSAEYFQHWGQGTLVTVSS
VL: not shown
notes: Fab; The VH was cloned into Plasmid A (CH1, His6 and Flag tags) and the kappa VL into Plasmid C (kappa CL); expressed in E. coli
B2: Fab VH1-46_IGHD6-6*01_IGHJ1*01 S102A & L6_IGKJ1*01 (Fab, V domains shown)
VH: B1 VH with S102A, P103S
VL: not shown
notes: as for B1
B3: Fab VH1-46_IGHD6-6*01_IGHJ1*01 S103A & L6_IGKJ1*01 (Fab, V domains shown)
VH: B1 VH with P103A
VL: not shown
notes: as for B1
B4: Fab VH1-46_IGHD6-6*01_IGHJ1*01 S102A/S103P/S104F/H111F/I51T/N52L/S54T/G56H & L6_IGKJ1*01 (Fab, V domains shown)
VH: B1 VH with I51T, N52L, S54T, G56H, S102A, S104F, H111F
VL: not shown
notes: Tested as Fab expressed in E. coli: VH cloned into plasmid A (CH1 constant region, His6 and Flag tags), kappa VL cloned into plasmid C (kappa CL); also called APFF TLTH; H:APFF TLTH
B5: Fab VH1-46_IGHD6-6*01_IGHJ1*01 S102A/S103P/S104F/H111F/I51T/N52L/P53A/S54T/G56H & L6_IGKJ1*01 (Fab, V domains shown)
VH: B1 VH with I51T, N52L, P53A, S54T, G56H, S102A, S104F, H111F
VL: not shown
notes: Tested as Fab expressed in E. coli (CH1 with His6/Flag tags from plasmid A; kappa CL from plasmid C); also called APFF TLATH
B6: Fab VH1-46_IGHD6-6*01_IGHJ1*01 S102A/S103P/S104F/H111F/I51T/N52L/P53N/S54T/G56H & L6_IGKJ1*01 (Fab, V domains shown)
VH: B1 VH with I51T, N52L, P53N, S54T, G56H, S102A, S104F, H111F
VL: not shown
notes: Tested as Fab expressed in E. coli (CH1 with His6/Flag tags from plasmid A; kappa CL from plasmid C); also called APFF TLNTH
B7: Fab VH1-46_IGHD6-6*01_IGHJ1*01 S102A/S103P/S104F/H111F/I51T/N52L/P53Y/S54T/G56H & L6_IGKJ1*01 (Fab, V domains shown)
VH: B1 VH with I51T, N52L, P53Y, S54T, G56H, S102A, S104F, H111F
VL: not shown
notes: Tested as Fab expressed in E. coli (CH1 with His6/Flag tags from plasmid A; kappa CL from plasmid C); also called APFF TLYTH
B8: Fab VH1-46_IGHD6-6*01_IGHJ1*01 S102A/S103P/S104F/H111F/I51T/N52L/P53V/S54T/G56H & L6_IGKJ1*01 (Fab, V domains shown)
VH: B1 VH with I51T, N52L, P53V, S54T, G56H, S102A, S104F, H111F
VL: not shown
notes: Tested as Fab expressed in E. coli (CH1 with His6/Flag tags from plasmid A; kappa CL from plasmid C); also called APFF TLVTH
B9: Fab VH1-46_IGHD6-6*01_IGHJ1*01 S102A/S103P/S104F/H111F/I51T/N52L/P53W/S54T/G56H & L6_IGKJ1*01 (Fab, V domains shown)
VH: B1 VH with I51T, N52L, P53W, S54T, G56H, S102A, S104F, H111F
VL: not shown
notes: Tested as Fab expressed in E. coli (CH1 with His6/Flag tags from plasmid A; kappa CL from plasmid C); also called APFF TLWTH
B10: Fab VH1-46_IGHD6-6*01_IGHJ1*01 S102A/S103P/S104F/H111F/I51T/N52L/P53H/S54T/G56H & L6_IGKJ1*01 (Fab, V domains shown)
VH: B1 VH with I51T, N52L, P53H, S54T, G56H, S102A, S104F, H111F
VL: not shown
notes: Tested as Fab expressed in E. coli (CH1 with His6/Flag tags from plasmid A; kappa CL from plasmid C); also called APFF TLHTH
B11: Fab VH1-46_IGHD6-6*01_IGHJ1*01 S102A/S103P/S104F/H111F/I51T/N52L/P53S/S54T/G56H & L6_IGKJ1*01 (Fab, V domains shown)
VH: B1 VH with I51T, N52L, P53S, S54T, G56H, S102A, S104F, H111F
VL: not shown
notes: Tested as Fab expressed in E. coli (CH1 with His6/Flag tags from plasmid A; kappa CL from plasmid C); also called APFF TLSTH
B12: Fab VH1-46_IGHD6-6*01_IGHJ1*01 S102A/S103P/S104F/H111F/I51T/N52L/P53E/S54T/G56H & L6_IGKJ1*01 (Fab, V domains shown)
VH: B1 VH with I51T, N52L, P53E, S54T, G56H, S102A, S104F, H111F
VL: not shown
notes: Tested as Fab expressed in E. coli (CH1 with His6/Flag tags from plasmid A; kappa CL from plasmid C); also called APFF TLETH
B13: Fab VH1-46_IGHD6-6*01_IGHJ1*01 S102A/S103P/S104F/H111F/I51T/N52L/P53M/S54T/G56H & L6_IGKJ1*01 (Fab, V domains shown)
VH: B1 VH with I51T, N52L, P53M, S54T, G56H, S102A, S104F, H111F
VL: not shown
notes: Tested as Fab expressed in E. coli (CH1 with His6/Flag tags from plasmid A; kappa CL from plasmid C); also called APFF TLMTH
B14: Fab VH1-46_IGHD6-6*01_IGHJ1*01 S102A/S103P/S104F/H111F/I51T/N52L/P53R/S54T/G56H & L6_IGKJ1*01 (Fab, V domains shown)
VH: B1 VH with I51T, N52L, P53R, S54T, G56H, S102A, S104F, H111F
VL: not shown
notes: Tested as Fab expressed in E. coli (CH1 with His6/Flag tags from plasmid A; kappa CL from plasmid C); also called APFF TLRTH
B15: Fab VH1-46_IGHD6-6*01_IGHJ1*01 S102A/S103P/S104F/H111F/I51T/N52L/P53T/S54T/G56H & L6_IGKJ1*01 (Fab, V domains shown)
VH: B1 VH with I51T, N52L, P53T, S54T, G56H, S102A, S104F, H111F
VL: not shown
notes: Tested as Fab expressed in E. coli (CH1 with His6/Flag tags from plasmid A; kappa CL from plasmid C); also called APFF TLTTH
B16: Fab VH1-46_IGHD6-6*01_IGHJ1*01 S102A/S103P/S104F/H111F/I51T/N52L/P53G/S54T/G56H & L6_IGKJ1*01 (Fab, V domains shown)
VH: B1 VH with I51T, N52L, P53G, S54T, G56H, S102A, S104F, H111F
VL: not shown
notes: Tested as Fab expressed in E. coli (CH1 with His6/Flag tags from plasmid A; kappa CL from plasmid C); also called APFF TLGTH
B17: Fab VH1-46_IGHD6-6*01_IGHJ1*01 S102A/S103P/S104F/H111F S54A & L6_IGKJ1*01 (Fab, V domains shown)
VH: B1 VH with S54A, S102A, S104F, H111F
VL: not shown
notes: Fab made in E. coli; CH1 with tags and kappa CL are not included; also called APFF S54A; H:APFF S54A

Changes are numbered by the printed parent chain. Names and notes keep the numbering of the source.

The first experiment deals with T1, Recombinant Human DLL4 (delta-like protein 4) (human, UniProt Q9NR61 27-529).
T1 construct: Bought recombinant protein (R&D Systems Cat#1506-D4/CF); also called rHuman DLL4; Delta-like 4
Put plainly: ECL (MSD) multispot assay; Fab 0.1 µM.
With B1, the “ECL signal” value came out at 19300 and the Signal/Noise was 139.

B2: the “ECL signal” value was determined as 15800 and the Signal/Noise was 71.6.

Regarding B3, the “ECL signal” value amounted to 7110 and the Signal/Noise amounted to 31.6.

The target in the next experiment is T2, Recombinant Human DLL4 (human, UniProt Q9NR61 27-524).
T2 construct: Bought recombinant protein (R&D Systems Cat#1506-D4/CF), coated on the plate; also called delta-like protein 4; Delta-like 4
Nature of the experiment: ELISA, DLL4 coated, 100 nM Fab. (In general: In an ELISA, binding on a coated surface is turned into a signal by an enzyme label.)
For the molecule B4, the “ELISA signal” value amounted to 0.641.

Regarding B5, the “ELISA signal” value was 0.33.

Take B6: the “ELISA signal” value came out at 0.021.

Consider B7, for which the “ELISA signal” value was 0.274.

As for B8, the “ELISA signal” value is 0.035.

In the case of B9, the “ELISA signal” value stood at 0.433.

As for B10, the “ELISA signal” value stood at 0.287.

As to B11, the “ELISA signal” value came out at 0.076.

B12: the “ELISA signal” value is 0.017.

As to B13, the “ELISA signal” value was determined as 0.341.

With B14, the “ELISA signal” value was 0.07.

Take B15: the “ELISA signal” value worked out at 0.219.

Turning to B16, the “ELISA signal” value was 0.018.

In another experiment the target is T1, Recombinant Human DLL4 (delta-like …). Put plainly: ECL (MSD) multispot assay; Fab 0.01 µM.
Consider B1, for which the “ECL signal” value was determined as 4100 and the Signal/Noise turned out to be 22.9.

Take B2: the “ECL signal” value was found to be 2600 and the Signal/Noise came to 10.

With B3, the “ECL signal” value was determined as 1190 and the Signal/Noise turned out to be 4.5.

A further experiment has as its target T2, Recombinant Human DLL4. Put plainly: ECL 96-well plate binding assay, DLL4 immobilised, 10 nM Fab.
Take B4: the “ECL signal” value is 123000.

For B5, the “ECL signal” value came out at 163000.

In the case of B6, the “ECL signal” value worked out at 114000.

Regarding B7, the “ECL signal” value turned out to be 99500.

As to B8, the “ECL signal” value came to 91500.

As to B9, the “ECL signal” value came out at 126000.

As for B10, the “ECL signal” value stood at 108000.

For the molecule B11, the “ECL signal” value came to 135000.

As to B12, the “ECL signal” value amounted to 91500.

Turning to B13, the “ECL signal” value came to 105000.

On to B14, for which the “ECL signal” value came out at 63200.

Take B15: the “ECL signal” value worked out at 125000.

Turning to B16, the “ECL signal” value was found to be 103000.

The target in a further experiment is T3, Recombinant Human DLL4 (delta-like protein 4) (human, UniProt Q9NR61 27-529).
T3 construct: Bought recombinant human DLL4 (R&D Systems Cat#1506-D4/CF), coated on the plate; also called rHuman DLL4; Delta-like 4
Put plainly: ELISA on coated DLL4, 100 nM Fab.
With B17, the “ELISA signal” value came out at 0.02.

The values above are taken from patent publication US20120316071A1 (published 2012).
